Measured values reported in publication PMC9918506, “Structural insights into pathogenic mechanism of hypohidrotic ectodermal dysplasia caused by ectodysplasin A variants” (Nature Communications, 2023).

B1: EDA·A1 TNF homology domain (EDA·A1THD, residues 233–391), wild type [human] / EDAR cysteine-rich domains (EDAR_(CRDS), residues 30–150), MBP tag removed [human] (parent)
chain 1: GPSGAADKAGTRENQPAVVHLQGQGSAIQVKNDLSGGVLNDWSRITMNPKVFKLHPRSGELEVLVDGTYFIYSQVEVYYINFTDFASYEVVVDEKPFLQCTRSIETGKTNYNTCYTAGVCLLKARQKIAVKMVHADISINMSKHTTFFGAIRLGEAPAS
chain 2: GGSGGSGGSGGSNCGENEYYNQTTGLCQECPPCGPGEEPYLSCGYGTKDEDYGCVPCPAEKFSKGGYQICRRHKDCEGFFRATVLTPGDMENDAECGPCLPGYYMLENRPRNIYGMVCYSCLLAPPNTKECVG

Variants of: B1
Test: SPR
Conditions: with EDAR cysteine-rich domains (EDAR_(CRDS), residues 30–150), 50, 25, 12.5, 6.25, 3.125 nM

Row | Kd [nM] | Variant
1 | 35.9 | chain 1 GPSGAADKAGTRENQPAVVHLQGQGSAIQVKNDLSGGVLNDWSCITMNPKVFKLHPRSGELEVLVDGTYFIYSQVEVYYINFTDFASYEVVVDEKPFLQCTRSIETGKTNYNTCYTAGVCLLKARQKIAVKMVHADISINMSKHTTFFGAIRLGEAPAS [chain 1 R44C]
